Experiments:
[1] = Thermal denaturation monitored by circular dichroism (220 nm) as a function of temperature and CaCl2 concentration; type: physicochemical
Protocol: The effect of CaCl2 on the stability of the ADAM33 N231Q catalytic domain as determined by thermal denaturation: The effect of the concentration of CaCl2 on the retention of the secondary structure of the ADAM33 N231Q catalytic domain was monitored by circular dichroism (λ220 nm) as a function of temperature. A parallel study was performed replacing the CaCl2 with NaCl to control for the effect of the corresponding increase in ionic strength. The ADAM33 N231Q catalytic domain was purified as described above and then diluted to 0.2 mg/ml. The sample was then dialyzed against 25 mM Hepes, pH 7.5, 5% glycerol overnight. The temperature dependent protein denaturation was performed using a JASCO 810 spectropolarimeter under the following conditions: • Protein concentration: 0.2 mg/ml (based on a BioRad Protein Assay) • Cell length: 0.1 cm • Monitor wavelength: 220 nm • Temperature slope: 2° C./min • Measurement range: 20-80° C.
Therefore, greater than 10 μM CaCl2, and preferably between 0.3-100 mM CaCl2 should be included to maintain the stability of this protein.

[2] = Storage stability of purified protein (N-terminal sequencing, mass spectrometry, enzymatic assay); type: physicochemical; details: 4° C.; expression induced with 0.5 mM CuSO4, purified as complex of pro and catalytic domains
Protocol: The Ni-NTA column was washed with 15-20 CV of buffer C until a stable baseline was achieved, and the protein was eluted with 250 mM imidazole in buffer C. The eluted protein was concentrated to 5-15 mg/ml, and then applied to a SUPERDEX-75 gel filtration column equilibrated with buffer GF (25 mM HEPES, pH 7.5, 150 mM NaCl, 10% glycerol, 50 mM imidazole). Fractions corresponding to the monomer of ADAM33 were pooled, and diluted to 0.3 mg/ml, flash-frozen in liquid nitrogen, and stored at −80° C. […] When used for crystallography, the frozen protein was thawed on ice and concentrated to 10 mg/ml using Ultrafree®-15 Centrifugation Filter Device (Millipore, Bedford, Mass.). The thawed protein was immediately subjected to crystallization trials. Using this protocol a total of 1-9 mg of ADAM33 N231Q comprising the amino acid sequence of SEQ ID NO: 8 and SEQ ID NO: 36 (the C-Terminal Ser-Gly His6 Tag) was obtained from 1 liter of conditioned medium. 5 mM CaCl2 is preferably included throughout the purification process. It is also preferred that 5 mM CaCl2 is retained in the storage buffer.
After designing an appropriate DNA construct, the expression of the ADAM33 catalytic domain in an eukaryotic cell line needed to be optimized. […] However, under these induction conditions, Cu^2+ readily binds to the C-terminal His6 Tag. […]

B1: ADAM33 N231Q: modified human ADAM33 catalytic domain, Asn231 replaced by glutamine (SEQ ID NO: 8) with C-terminal Ser-Gly His6 Tag (protein)
chain: EARRTRKYLELYIVADHTLFLTRHRNLQHTKQRLLEVANYVDQLLRTLDIQVALTGLEVWTERDRSRVTQDANATLWAFLQWRRGLWAQRPHDSAQLLTGRAFQGATVGLAPVEGMCRAESSGGVSTDHSELPIGAAATMAHEIGHSLGLSHDPDGCCVEAAAESGGCVMAAATGHPFPRVFSACSRRQLRAFFRKGGGACLSNAPSGHHHHHH
modifications: C-terminal Ser-Gly His6 tag; homo sapiens
- ΔDenaturation Temp. ([1]; CaCl2 0 mM): 0.0 °C
- Denaturation Temp. ([1]; CaCl2 0 mM, 0.2 mg/ml protein, 25 mM Hepes pH 7.5, 5% glycerol): 43.5 °C
- Denaturation Temp. ([1]; CaCl2 0.003 mM): 50.6 °C
- ΔDenaturation Temp. ([1]; CaCl2 0.003 mM vs 0 mM): 7.1 °C
- Denaturation Temp. ([1]; CaCl2 0.03 mM): 52.9 °C
- ΔDenaturation Temp. ([1]; CaCl2 0.03 mM vs 0 mM): 9.4 °C
- Denaturation Temp. ([1]; CaCl2 0.3 mM): 53.9 °C
- ΔDenaturation Temp. ([1]; CaCl2 0.3 mM vs 0 mM): 10.4 °C
- Denaturation Temp. ([1]; CaCl2 0.5 mM): 56.9 °C
- ΔDenaturation Temp. ([1]; CaCl2 0.5 mM vs 0 mM): 13.4 °C
- Denaturation Temp. ([1]; CaCl2 1.0 mM): 57.9 °C
- ΔDenaturation Temp. ([1]; CaCl2 1.0 mM vs 0 mM): 14.4 °C
- Denaturation Temp. ([1]; CaCl2 2.5 mM): 60.6 °C
- ΔDenaturation Temp. ([1]; CaCl2 2.5 mM vs 0 mM): 17.1 °C
- Denaturation Temp. ([1]; CaCl2 5.0 mM): 61.5 °C
- ΔDenaturation Temp. ([1]; CaCl2 5.0 mM vs 0 mM): 18.0 °C
- Denaturation Temp. ([1]; CaCl2 10.0 mM): 63.3 °C
- ΔDenaturation Temp. ([1]; CaCl2 10.0 mM vs 0 mM): 19.8 °C
- Denaturation Temp. ([1]; CaCl2 25.0 mM): 64.6 °C
- ΔDenaturation Temp. ([1]; CaCl2 25.0 mM vs 0 mM): 21.1 °C
- Denaturation Temp. ([1]; CaCl2 50.0 mM): 65.6 °C
- ΔDenaturation Temp. ([1]; CaCl2 50.0 mM vs 0 mM): 22.1 °C
- Denaturation Temp. ([1]; CaCl2 100.0 mM): 65.2 °C
- ΔDenaturation Temp. ([1]; CaCl2 100.0 mM vs 0 mM): 21.7 °C
- stability in the presence of CaCl2 relative to NaCl ([1]; equivalent ionic strength): significantly greater stability

B2: wild type (WT) ADAM33: ADAM33 protein fragment with pre, pro and wild type catalytic domain and Ser-Gly-His6 Tag expressed in Drosophila S2 cells (SEQ ID NO: 2) (protein)
chain: MKLCILLAVVAFVGLSLGRSPWPGVPLQGHIPGQPVTPHWVLDGQPWRTVSLEEPVSKPDMGLVALEAEGQELLLELEKNHRLLAPGYIETHYGPDGQPVVLAPNHTDHCHYQGRVRGFPDSWVVLCTCSGMSGLITLSRNASYYLRPWPPRGSKDFSTHEIFRMEQLLTWKGTCGHRDPGNKAGMTSLPGGPQSRGRREARRTRKYLELYIVADHTLFLTRHRNLNHTKQRLLEVANYVDQLLRTLDIQVALTGLEVWTERDRSRVTQDANATLWAFLQWRRGLWAQRPHDSAQLLTGRAFQGATVGLAPVEGMCRAESSGGVSTDHSELPIGAAATMAHEIGHSLGLSHDPDGCCVEAAAESGGCVMAAATGHPFPRVFSACSRRQLRAFFRKGGGACLSNAP
modifications: Ser-Gly-His6 tag; homo sapiens
- stability of purified protein [2]: labile
